# T1: FcγRIIb extracellular domain with C-terminal His tag (human, UniProt P31994 43-217)
# T1 construct: extracellular domain; expressed in FreeStyle293 cells; analyte in Biacore; also called FcgRIIb; 2b
# T1 sequence (looked up): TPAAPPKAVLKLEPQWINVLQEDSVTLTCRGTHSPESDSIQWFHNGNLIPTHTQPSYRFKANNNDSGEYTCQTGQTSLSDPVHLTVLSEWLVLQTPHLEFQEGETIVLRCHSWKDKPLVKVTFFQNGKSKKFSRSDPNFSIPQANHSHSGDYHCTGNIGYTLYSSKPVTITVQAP
# T2: FcγRIIb extracellular domain with C-terminal His tag (human, UniProt P31994 43-217)
# T2 construct: extracellular domain; soluble analyte in Biacore; also called FcgRIIb; not shown: His tag at the C terminus
# T2 sequence (looked up): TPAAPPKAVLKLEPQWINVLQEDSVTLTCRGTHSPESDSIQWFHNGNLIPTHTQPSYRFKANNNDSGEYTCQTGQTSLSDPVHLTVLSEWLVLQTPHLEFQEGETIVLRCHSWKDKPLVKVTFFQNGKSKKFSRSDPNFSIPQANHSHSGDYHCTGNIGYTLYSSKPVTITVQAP
# Experiments:
# [1] = target: T3, FcγRIa extracellular domain with C-terminal His tag (human, UniProt P12314 16-292); test: SPR (Biacore); He/Con_1a divided by He/Con_2b (FcγRIIb as reference)
# T3 construct: extracellular domain; expressed in FreeStyle293 cells; analyte in Biacore; also called FcgRI; 1a
# T3 sequence (P12314 16-292): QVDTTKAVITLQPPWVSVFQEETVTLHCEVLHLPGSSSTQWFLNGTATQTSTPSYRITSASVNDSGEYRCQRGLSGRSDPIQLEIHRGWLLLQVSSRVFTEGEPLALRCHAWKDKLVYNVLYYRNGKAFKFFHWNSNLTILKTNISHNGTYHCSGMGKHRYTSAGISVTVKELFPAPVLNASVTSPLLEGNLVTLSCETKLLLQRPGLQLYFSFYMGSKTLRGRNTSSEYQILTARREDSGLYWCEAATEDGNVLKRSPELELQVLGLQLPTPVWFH
# [2] = target: T3, FcγRIa extracellular domain with …; test: SPR (Biacore), captured antibody, FcγR as analyte; relative binding
# [3] = target: T1, FcγRIIb extracellular domain with …; test: as above
# [4] = target: T4, FcγRIa extracellular domain with C-terminal His tag (human, UniProt P12314 16-292); test: SPR, binding relative to GpH7-A5/GpH7-B3/GpL16-k0 = 100
# T4 construct: extracellular domain; soluble analyte in Biacore; also called FcgRI; not shown: His tag at the C terminus
# T4 sequence (P12314 16-292): as above
# [5] = target: T2, FcγRIIb extracellular domain with …; test: as above
# [6] = target: T4, FcγRIa extracellular domain with …; test: SPR; He/Con_1a divided by He/Con_2b (FcγRIa against FcγRIIb)
# Method: The heterodimerized antibodies He Abs in which one of the H chains was introduced with an alteration were assayed for their binding activities to each activating FcγR and inhibitory FcγR according to the method described in Example 4. […] The activating FcγRs in FIGS. 26, 27, 28, and 29 are FcγRIa, FcγRIIa (R), FcγRIIa (H), and FcγRIIIa, respectively.
# Analysis of interaction between objective antibody and the FcγR was carried out using Biacore T100 (GE Healthcare). HBS-EP+ (GE Healthcare) was used as the running buffer, and the measurement temperature was set to 25° C. Chips produced by immobilizing the antigen peptide by the amine coupling method to a Series S Sencor Chip CM5 (GE Healthcare), or alternatively, chips produced by allowing preliminarily biotinylated antigen peptides to interact with and immobilize onto a Series S Sensor Chip SA (certified) (GE Healthcare) were used. Antibodies of interest were captured onto an antigen peptide-immobilized chip, and allowed to interact to each FcγR diluted with running buffer. To regenerate and repeatedly use the chip, the antibodies captured on the chip were washed off by reacting 10 mM glycine-HCl, pH 1.5.
Binder,He_1a/2b (Ia/IIb) [1] [ratio],He/Con_1a [2],He/Con_2b [3],He/Con_1a [4],He/Con_2b [5],He_1a/2b (Ia/IIb) [6] [ratio]
"GpH7-A5/GpH7-B3 variant V266_13S/GpL16-k0 (antibody, human IgG1, kappa, He Ab; IgG1, mutation in one H chain) heavy 1: not shown heavy 2: not shown light: DIVMTQSPLSLPVTPGEPASISCQASESLVHSNRNTYLHWYLQKPGQSPQLLIYKVSNRFSGVPDRFSGSGSGTDFTLKISRVEAEDVGVYYCSQNTHVPPTFGQGTKVEIERTVAAPSVFIFPPSDEQLKSGTASVVCLLNNFYPREAKVQWKVDNALQSGNSQESVTEQDSKDSTYSLSSTLTLSKADYEKHKVYACEVTHQGLSSPVTKSFNRGEC",1.67,90.6 % of HeCon Ab (GpH7-A5/GpH7-B3/GpL16-k0 = 100),54.4 % of HeCon Ab (GpH7-A5/GpH7-B3/GpL16-k0 = 100),,,
"GpH7-A5/GpH7-B3 variant V266_11K/GpL16-k0 (antibody, human IgG1, kappa, He Ab; IgG1, mutation in one H chain) heavy 1: not shown heavy 2: not shown light: DIVMTQSPLSLPVTPGEPASISCQASESLVHSNRNTYLHWYLQKPGQSPQLLIYKVSNRFSGVPDRFSGSGSGTDFTLKISRVEAEDVGVYYCSQNTHVPPTFGQGTKVEIERTVAAPSVFIFPPSDEQLKSGTASVVCLLNNFYPREAKVQWKVDNALQSGNSQESVTEQDSKDSTYSLSSTLTLSKADYEKHKVYACEVTHQGLSSPVTKSFNRGEC",63.5,64.4 % of HeCon Ab (GpH7-A5/GpH7-B3/GpL16-k0 = 100),1 % of HeCon Ab (GpH7-A5/GpH7-B3/GpL16-k0 = 100),,,
"GpH7-A5/GpH7-B3 variant D270_12R/GpL16-k0 (antibody, human IgG1, kappa, change in the GpH7-B3 H chain only; also called He Ab) heavy 1: not shown heavy 2: not shown light: DIVMTQSPLSLPVTPGEPASISCQASESLVHSNRNTYLHWYLQKPGQSPQLLIYKVSNRFSGVPDRFSGSGSGTDFTLKISRVEAEDVGVYYCSQNTHVPPTFGQGTKVEIERTVAAPSVFIFPPSDEQLKSGTASVVCLLNNFYPREAKVQWKVDNALQSGNSQESVTEQDSKDSTYSLSSTLTLSKADYEKHKVYACEVTHQGLSSPVTKSFNRGEC",,,,66.3 % of control,18.3 % of control,3.63
"GpH7-A5/GpH7-B3 variant D270_05P/GpL16-k0 (antibody, human IgG1, kappa, change in the GpH7-B3 H chain only; also called He Ab) heavy 1: not shown heavy 2: not shown light: DIVMTQSPLSLPVTPGEPASISCQASESLVHSNRNTYLHWYLQKPGQSPQLLIYKVSNRFSGVPDRFSGSGSGTDFTLKISRVEAEDVGVYYCSQNTHVPPTFGQGTKVEIERTVAAPSVFIFPPSDEQLKSGTASVVCLLNNFYPREAKVQWKVDNALQSGNSQESVTEQDSKDSTYSLSSTLTLSKADYEKHKVYACEVTHQGLSSPVTKSFNRGEC",,,,67.1 % of control,13.9 % of control,4.81
"GpH7-A5/GpH7-B3 variant D270_14T/GpL16-k0 (antibody, human IgG1, kappa, change in the GpH7-B3 H chain only; also called He Ab) heavy 1: not shown heavy 2: not shown light: DIVMTQSPLSLPVTPGEPASISCQASESLVHSNRNTYLHWYLQKPGQSPQLLIYKVSNRFSGVPDRFSGSGSGTDFTLKISRVEAEDVGVYYCSQNTHVPPTFGQGTKVEIERTVAAPSVFIFPPSDEQLKSGTASVVCLLNNFYPREAKVQWKVDNALQSGNSQESVTEQDSKDSTYSLSSTLTLSKADYEKHKVYACEVTHQGLSSPVTKSFNRGEC",,,,70.6 % of control,57.8 % of control,1.22

# Now from value to binder:
He_1a/2b (Ia/IIb) [1] [ratio],He/Con_1a [2],He/Con_2b [3],He/Con_1a [4],He/Con_2b [5],He_1a/2b (Ia/IIb) [6] [ratio],Binder
,,,77.9 % of control,39.5 % of control,1.97,"GpH7-A5/GpH7-B3 variant D270_03V/GpL16-k0 (antibody, human IgG1, kappa, change in the GpH7-B3 H chain only; also called He Ab) heavy 1: not shown heavy 2: not shown light: DIVMTQSPLSLPVTPGEPASISCQASESLVHSNRNTYLHWYLQKPGQSPQLLIYKVSNRFSGVPDRFSGSGSGTDFTLKISRVEAEDVGVYYCSQNTHVPPTFGQGTKVEIERTVAAPSVFIFPPSDEQLKSGTASVVCLLNNFYPREAKVQWKVDNALQSGNSQESVTEQDSKDSTYSLSSTLTLSKADYEKHKVYACEVTHQGLSSPVTKSFNRGEC"
,,,78.1 % of control,53.1 % of control,1.47,"GpH7-A5/GpH7-B3 variant D270_04F/GpL16-k0 (antibody, human IgG1, kappa, change in the GpH7-B3 H chain only; also called He Ab) heavy 1: not shown heavy 2: not shown light: DIVMTQSPLSLPVTPGEPASISCQASESLVHSNRNTYLHWYLQKPGQSPQLLIYKVSNRFSGVPDRFSGSGSGTDFTLKISRVEAEDVGVYYCSQNTHVPPTFGQGTKVEIERTVAAPSVFIFPPSDEQLKSGTASVVCLLNNFYPREAKVQWKVDNALQSGNSQESVTEQDSKDSTYSLSSTLTLSKADYEKHKVYACEVTHQGLSSPVTKSFNRGEC"
,,,74.6 % of control,41.5 % of control,1.8,"GpH7-A5/GpH7-B3 variant D270_07I/GpL16-k0 (antibody, human IgG1, kappa, change in the GpH7-B3 H chain only; also called He Ab) heavy 1: not shown heavy 2: not shown light: DIVMTQSPLSLPVTPGEPASISCQASESLVHSNRNTYLHWYLQKPGQSPQLLIYKVSNRFSGVPDRFSGSGSGTDFTLKISRVEAEDVGVYYCSQNTHVPPTFGQGTKVEIERTVAAPSVFIFPPSDEQLKSGTASVVCLLNNFYPREAKVQWKVDNALQSGNSQESVTEQDSKDSTYSLSSTLTLSKADYEKHKVYACEVTHQGLSSPVTKSFNRGEC"

# — patent publication US20150344570A1 (published 2015)
